Measured values published in patent publication US20240189392A1 (AMBRX, published 2024).

Columns and labels:
Assay in all cases: cell-based or functional assay
human RXFP1 [1] = target: T1, human RXFP1 (human, UniProt Q9HBX9 1-757)
T1 sequence (looked up): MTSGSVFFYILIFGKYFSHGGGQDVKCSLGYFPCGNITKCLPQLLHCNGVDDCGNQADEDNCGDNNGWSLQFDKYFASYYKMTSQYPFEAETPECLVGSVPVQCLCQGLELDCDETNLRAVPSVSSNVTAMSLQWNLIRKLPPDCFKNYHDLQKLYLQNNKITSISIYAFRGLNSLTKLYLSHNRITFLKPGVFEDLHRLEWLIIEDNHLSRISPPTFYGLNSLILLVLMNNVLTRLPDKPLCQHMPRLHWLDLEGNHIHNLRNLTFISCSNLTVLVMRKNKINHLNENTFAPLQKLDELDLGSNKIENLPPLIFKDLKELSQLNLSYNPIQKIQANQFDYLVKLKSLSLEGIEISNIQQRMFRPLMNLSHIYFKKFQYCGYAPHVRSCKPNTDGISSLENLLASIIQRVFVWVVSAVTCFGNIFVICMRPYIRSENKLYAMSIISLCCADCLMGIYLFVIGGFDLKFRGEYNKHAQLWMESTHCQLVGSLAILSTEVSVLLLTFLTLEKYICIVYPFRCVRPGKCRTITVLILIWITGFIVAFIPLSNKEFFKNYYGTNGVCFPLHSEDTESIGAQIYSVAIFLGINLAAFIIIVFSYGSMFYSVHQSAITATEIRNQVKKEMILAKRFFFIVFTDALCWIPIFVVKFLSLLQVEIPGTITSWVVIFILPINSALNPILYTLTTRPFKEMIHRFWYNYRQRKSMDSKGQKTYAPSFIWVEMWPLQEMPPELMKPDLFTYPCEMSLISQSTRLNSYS

rat RXFP1 = target: T2, rat RXFP1 (rat, UniProt Q6R6I6 1-758)
T2 sequence (looked up): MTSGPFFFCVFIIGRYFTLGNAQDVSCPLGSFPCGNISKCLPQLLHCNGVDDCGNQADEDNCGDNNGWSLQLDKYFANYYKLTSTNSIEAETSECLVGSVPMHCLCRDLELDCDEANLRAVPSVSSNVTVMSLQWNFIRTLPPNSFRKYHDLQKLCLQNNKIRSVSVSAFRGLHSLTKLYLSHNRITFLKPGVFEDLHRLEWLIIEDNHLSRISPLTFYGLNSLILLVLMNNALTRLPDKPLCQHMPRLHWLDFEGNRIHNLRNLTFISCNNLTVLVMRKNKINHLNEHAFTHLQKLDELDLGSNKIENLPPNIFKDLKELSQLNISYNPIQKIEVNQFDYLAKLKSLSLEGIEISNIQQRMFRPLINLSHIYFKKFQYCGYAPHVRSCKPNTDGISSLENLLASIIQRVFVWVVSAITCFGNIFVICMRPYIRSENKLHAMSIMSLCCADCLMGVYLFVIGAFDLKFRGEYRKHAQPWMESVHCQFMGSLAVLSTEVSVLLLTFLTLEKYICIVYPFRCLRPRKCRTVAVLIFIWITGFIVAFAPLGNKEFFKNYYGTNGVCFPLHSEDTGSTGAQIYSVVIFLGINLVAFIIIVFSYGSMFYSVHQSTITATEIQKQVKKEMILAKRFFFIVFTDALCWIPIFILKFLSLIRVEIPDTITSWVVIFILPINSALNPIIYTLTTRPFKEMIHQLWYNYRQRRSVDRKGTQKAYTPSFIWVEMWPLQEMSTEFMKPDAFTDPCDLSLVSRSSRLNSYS

cynomolgus monkey RXFP1 = target: T3, cynomolgus monkey RXFP1 (cynomolgus monkey, UniProt H9ERA2 1-757 (rhesus entry))
T3 sequence: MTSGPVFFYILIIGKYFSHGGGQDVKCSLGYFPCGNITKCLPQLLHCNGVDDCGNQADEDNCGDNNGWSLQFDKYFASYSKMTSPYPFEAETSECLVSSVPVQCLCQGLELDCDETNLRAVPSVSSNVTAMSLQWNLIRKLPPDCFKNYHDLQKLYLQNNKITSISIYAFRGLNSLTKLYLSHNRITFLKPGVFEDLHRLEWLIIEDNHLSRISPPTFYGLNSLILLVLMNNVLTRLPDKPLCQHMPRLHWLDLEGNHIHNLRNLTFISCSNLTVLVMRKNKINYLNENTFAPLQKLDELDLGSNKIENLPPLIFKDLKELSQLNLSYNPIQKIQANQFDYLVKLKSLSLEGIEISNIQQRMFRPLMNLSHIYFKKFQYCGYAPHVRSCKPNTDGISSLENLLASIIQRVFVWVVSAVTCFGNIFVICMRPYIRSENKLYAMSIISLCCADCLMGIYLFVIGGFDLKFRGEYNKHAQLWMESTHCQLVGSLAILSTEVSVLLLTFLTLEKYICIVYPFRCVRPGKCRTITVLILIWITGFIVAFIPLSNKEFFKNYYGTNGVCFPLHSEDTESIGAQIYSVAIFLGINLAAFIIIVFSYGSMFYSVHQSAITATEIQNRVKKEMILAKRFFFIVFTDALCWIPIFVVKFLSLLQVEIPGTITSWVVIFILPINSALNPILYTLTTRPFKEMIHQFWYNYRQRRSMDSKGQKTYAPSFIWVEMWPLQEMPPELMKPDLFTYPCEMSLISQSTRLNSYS

human RXFP4 = human RXFP4 (human, UniProt Q8TDU9 1-374)
dog RXFP1 = dog RXFP1 (dog)
human RXFP1 [2] = target: T1, human RXFP1; remark: listed apart in the source

human RXFP4, sequence (Q8TDU9 whole entry): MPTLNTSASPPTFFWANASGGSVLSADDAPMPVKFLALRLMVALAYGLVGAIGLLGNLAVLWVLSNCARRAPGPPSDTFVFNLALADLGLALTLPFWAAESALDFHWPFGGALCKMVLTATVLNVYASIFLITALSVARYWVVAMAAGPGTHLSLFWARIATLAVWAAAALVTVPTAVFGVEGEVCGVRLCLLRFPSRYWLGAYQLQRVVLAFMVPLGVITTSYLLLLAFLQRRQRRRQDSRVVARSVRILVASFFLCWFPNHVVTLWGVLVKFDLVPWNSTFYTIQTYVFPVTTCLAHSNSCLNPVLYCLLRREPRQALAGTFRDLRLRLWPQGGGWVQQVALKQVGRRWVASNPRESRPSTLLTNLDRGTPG

B1: RLX-A-AQ1-20KPEG (ligand)
chain 1: XLYSALANKCCHVGCTKRSLARFC
chain 2: ASWMEEVIKLCGRELVRAQIAICGMSTWS
modifications: pACF (para-acetylphenylalanine) at position 1 of the A chain, linked to a 20 kDA PEG via an oxime linkage
In vitro Activity Fold Loss (human RXFP1 [1]): 12 fold | Potency Ratio (RLX-A-AQ1-20KPEG/WT-RLX), cAMP assay, rat RXFP1/CHO-K1 cells (rat RXFP1): 32 fold | RLX-A-AQ1-20KPEG Potency Ratio (hRXFP 1-1.0), cAMP assay (rat RXFP1): 0.34 ratio | cAMP Assay EC50 (nM), rat RXFP1/CHO-K1 cells (rat RXFP1): 1.1 nM | Potency Ratio (RLX-A-AQ1-20KPEG/WT-RLX), cAMP assay, cyno RXFP1/CHO-K1 cells (cynomolgus monkey RXFP1): 33 fold | RLX-A-AQ1-20KPEG Potency Ratio (hRXFP 1-1.0), cAMP assay (cynomolgus monkey RXFP1): 1.6 ratio | cAMP Assay EC50 (nM), cyno RXFP1/CHO-K1 cells (cynomolgus monkey RXFP1): 1.97 nM | cAMP Assay EC50 (nM), inhibition of forskolin-induced cAMP, human RXFP4/CHO-K1 cells (human RXFP4): > 3000 nM | Potency Ratio (RLX-A-AQ1-20KPEG/WT-RLX), cAMP assay, dog RXFP1/CHO-K1 cells (dog RXFP1): 27 fold | RLX-A-AQ1-20KPEG Potency Ratio (hRXFP 1-1.0), cAMP assay (dog RXFP1): 4.7 ratio | cAMP Assay EC50 (nM), dog RXFP1/CHO-K1 cells (dog RXFP1): 15 nM | Functional Assay Raw EC50 Values [ng/mL]; cAMP increase in THP-1 cells, 11/5/2010 (human RXFP1 [2]): 38 ng/mL
